Test results published in patent US20030157645.
Substitutions are numbered along the chain they refer to. Names may count otherwise.

B1: Subtilisin E (wild type) (protein)
chain: AQSVPYGISQIKAPALHSQGYTGSNVKVAVIDSGIDSSHPDLNVRGGASFVPSETNPYQDGSSHGTHVAGTIAALNNSIGVLGVSPSASLYAVKVLDSTGSGQYSWIINGIEWAISNNMDVINMSLGGPTGSTALKTVVDKAVSSGIVVAAAAGNEGSSGSTSTVGYPAKYPSTIAVGAVNSSNQRASFSSAGSELDVMAPGVSIQSTLPGGTYGAYNGTSMATPHVAGAAALILSKHPTWTNAQVRDRLESTATYLGNSFYYGKGLINVQAAAQ
B2: Variant 1 (Y6N/I31L/S38T/F50I/Q103R) (protein)
chain: B1 chain with Y6N, I31L, S38T, F50I, Q103R
B3: Variant 4 (Q103R/V138A/A150V/E156A/Y217H/Q271H) (protein)
chain: B1 chain with Q103R, V138A, A150V, E156A, Y217H, Q271H
B4: Variant 22 (E54D/Q103R/T133K/E156A/Y217H) (protein)
chain: B1 chain with E54D, Q103R, T133K, E156A, Y217H

target: fluorescent labeled casein or bovine serum albumin molecules

Row | Protein | Km
1 | B1 | 194 µM
2 | B2 | 117 µM
3 | B3 | 71 µM
4 | B4 | 26 µM
